The values below come from the Human Domainome abundance scans (Beltran et al. 2025).

± gives the uncertainty stated by the source.

This series is described as follows: abundance fitness (aPCA) (normalised: wild type 0, dead -1); higher = more abundant; growth selection in yeast, the domain comes from the species named. As to conditions: Homo sapiens.
“NEDD4-like E3 ubiquitin-protein ligase WWP2 P488D, O00308” registered an abundance fitness of 0.033 ± 0.053.
Take “NEDD4-like E3 ubiquitin-protein ligase WWP2 P488E, O00308”: the abundance fitness amounted to 0.018 ± 0.055.
As for “NEDD4-like E3 ubiquitin-protein ligase WWP2 P488F, O00308”, the abundance fitness is -0.127 ± 0.064.
In the case of “NEDD4-like E3 ubiquitin-protein ligase WWP2 P488G, O00308” it was -0.032 ± 0.04; in that of “NEDD4-like E3 ubiquitin-protein ligase WWP2 P488H, O00308”, 0.024 ± 0.062; in that of “NEDD4-like E3 ubiquitin-protein ligase WWP2 P488I, O00308”, -0.163 ± 0.069.
Consider “NEDD4-like E3 ubiquitin-protein ligase WWP2 P488K, O00308”, for which the abundance fitness is -0.04 ± 0.053.
As for “NEDD4-like E3 ubiquitin-protein ligase WWP2 P488L, O00308”, the abundance fitness is -0.063 ± 0.038.
For “NEDD4-like E3 ubiquitin-protein ligase WWP2 P488M, O00308”, the abundance fitness is -0.018 ± 0.057.
Turning to “NEDD4-like E3 ubiquitin-protein ligase WWP2 P488N, O00308”, the abundance fitness worked out at 0.021 ± 0.051.
Take “NEDD4-like E3 ubiquitin-protein ligase WWP2 P488Q, O00308”: the abundance fitness was -0.028 ± 0.033.
To “NEDD4-like E3 ubiquitin-protein ligase WWP2 P488T, O00308” belongs -0.044 ± 0.048; to “NEDD4-like E3 ubiquitin-protein ligase WWP2 P488V, O00308”, -0.037 ± 0.042.
Take “NEDD4-like E3 ubiquitin-protein ligase WWP2 P488W, O00308”: the abundance fitness is -0.144 ± 0.048.
With “NEDD4-like E3 ubiquitin-protein ligase WWP2 P488Y, O00308”, the abundance fitness is -0.066 ± 0.043.
“NEDD4-like E3 ubiquitin-protein ligase WWP2 Q442A, O00308”: the abundance fitness was -0.07 ± 0.035.
Substance “NEDD4-like E3 ubiquitin-protein ligase WWP2 Q442C, O00308” displayed an abundance fitness of 0.121 ± 0.079.
On to “NEDD4-like E3 ubiquitin-protein ligase WWP2 Q442D, O00308”, for which the abundance fitness worked out at 0.079 ± 0.066.
“NEDD4-like E3 ubiquitin-protein ligase WWP2 Q442E, O00308” showed an abundance fitness of 0.069 ± 0.04.
Regarding “NEDD4-like E3 ubiquitin-protein ligase WWP2 Q442F, O00308”, the abundance fitness was 0.128 ± 0.059.
As for “NEDD4-like E3 ubiquitin-protein ligase WWP2 Q442G, O00308”, the abundance fitness was -0.071 ± 0.052.
Consider “NEDD4-like E3 ubiquitin-protein ligase WWP2 Q442H, O00308”, for which the abundance fitness was -0.108 ± 0.086.
In the case of “NEDD4-like E3 ubiquitin-protein ligase WWP2 Q442K, O00308”, the abundance fitness is 0.195 ± 0.069.
As for “NEDD4-like E3 ubiquitin-protein ligase WWP2 Q442L, O00308”, the abundance fitness was -0.058 ± 0.045.
As for “NEDD4-like E3 ubiquitin-protein ligase WWP2 Q442M, O00308”, the abundance fitness turned out to be 0.038 ± 0.078.
On to “NEDD4-like E3 ubiquitin-protein ligase WWP2 Q442N, O00308”, for which the abundance fitness amounted to 0.097 ± 0.086.
To “NEDD4-like E3 ubiquitin-protein ligase WWP2 Q442P, O00308” belongs -0.067 ± 0.039; to “NEDD4-like E3 ubiquitin-protein ligase WWP2 Q442S, O00308”, 0.008 ± 0.042.
In the case of “NEDD4-like E3 ubiquitin-protein ligase WWP2 Q442T, O00308”, the abundance fitness is 0.048 ± 0.03.
The substance “NEDD4-like E3 ubiquitin-protein ligase WWP2 Q442V, O00308” showed an abundance fitness of 0.093 ± 0.042.
Consider “NEDD4-like E3 ubiquitin-protein ligase WWP2 Q442W, O00308”, for which the abundance fitness is -0.122 ± 0.072.
Take “NEDD4-like E3 ubiquitin-protein ligase WWP2 Q442Y, O00308”: the abundance fitness turned out to be 0.033 ± 0.048.
On to “NEDD4-like E3 ubiquitin-protein ligase WWP2 Q485A, O00308”, for which the abundance fitness is -0.036 ± 0.039.
In the case of “NEDD4-like E3 ubiquitin-protein ligase WWP2 Q485C, O00308” it was -0.071 ± 0.053; in that of “NEDD4-like E3 ubiquitin-protein ligase WWP2 Q485D, O00308”, -0.003 ± 0.053; in that of “NEDD4-like E3 ubiquitin-protein ligase WWP2 Q485E, O00308”, -0.034 ± 0.046.
In the case of “NEDD4-like E3 ubiquitin-protein ligase WWP2 Q485F, O00308” it was -0.149 ± 0.075.
Consider “NEDD4-like E3 ubiquitin-protein ligase WWP2 Q485G, O00308”, for which the abundance fitness is -0.004 ± 0.035.
As to “NEDD4-like E3 ubiquitin-protein ligase WWP2 Q485L, O00308”, the abundance fitness is -0.053 ± 0.035.
Turning to “NEDD4-like E3 ubiquitin-protein ligase WWP2 Q485M, O00308”, the abundance fitness was -0.038 ± 0.048.
In the case of “NEDD4-like E3 ubiquitin-protein ligase WWP2 Q485N, O00308” it was 0.095 ± 0.067; in that of “NEDD4-like E3 ubiquitin-protein ligase WWP2 Q485P, O00308”, -0.184 ± 0.068.
In the case of “NEDD4-like E3 ubiquitin-protein ligase WWP2 Q485R, O00308” it was -0.028 ± 0.038; in that of “NEDD4-like E3 ubiquitin-protein ligase WWP2 Q485S, O00308”, -0.053 ± 0.046.
Take “NEDD4-like E3 ubiquitin-protein ligase WWP2 Q485W, O00308”: the abundance fitness is -0.149 ± 0.062.
On to “NEDD4-like E3 ubiquitin-protein ligase WWP2 Q485Y, O00308”, for which the abundance fitness is -0.126 ± 0.072.
For the substance “NEDD4-like E3 ubiquitin-protein ligase WWP2 R460A, O00308”, the abundance fitness is -0.072 ± 0.044.
In the case of “NEDD4-like E3 ubiquitin-protein ligase WWP2 R460C, O00308”, the abundance fitness was -0.277 ± 0.074.
For the substance “NEDD4-like E3 ubiquitin-protein ligase WWP2 R460D, O00308”, the abundance fitness was -0.169 ± 0.083.
Turning to “NEDD4-like E3 ubiquitin-protein ligase WWP2 R460E, O00308”, the abundance fitness was -0.183 ± 0.063.
In the case of “NEDD4-like E3 ubiquitin-protein ligase WWP2 R460F, O00308” it was -0.261 ± 0.065.
In the case of “NEDD4-like E3 ubiquitin-protein ligase WWP2 R460G, O00308”, the abundance fitness was -0.166 ± 0.041.
For “NEDD4-like E3 ubiquitin-protein ligase WWP2 R460H, O00308”, the abundance fitness was -0.033 ± 0.081.
To “NEDD4-like E3 ubiquitin-protein ligase WWP2 R460I, O00308” belongs -0.036 ± 0.074; to “NEDD4-like E3 ubiquitin-protein ligase WWP2 R460K, O00308”, -0.088 ± 0.064; to “NEDD4-like E3 ubiquitin-protein ligase WWP2 R460L, O00308”, -0.088 ± 0.036.
Take “NEDD4-like E3 ubiquitin-protein ligase WWP2 R460N, O00308”: the abundance fitness was -0.343 ± 0.073.
For the substance “NEDD4-like E3 ubiquitin-protein ligase WWP2 R460P, O00308”, the abundance fitness was -0.032 ± 0.06.
“NEDD4-like E3 ubiquitin-protein ligase WWP2 R460Q, O00308”: the abundance fitness was -0.104 ± 0.054.
For the substance “NEDD4-like E3 ubiquitin-protein ligase WWP2 R460S, O00308”, the abundance fitness was -0.153 ± 0.06.
Take “NEDD4-like E3 ubiquitin-protein ligase WWP2 R460T, O00308”: the abundance fitness is -0.032 ± 0.061.
To “NEDD4-like E3 ubiquitin-protein ligase WWP2 R460V, O00308” belongs -0.137 ± 0.044.
To “NEDD4-like E3 ubiquitin-protein ligase WWP2 R460W, O00308” belongs -0.413 ± 0.036; to “NEDD4-like E3 ubiquitin-protein ligase WWP2 R460Y, O00308”, -0.558 ± 0.12.
With “NEDD4-like E3 ubiquitin-protein ligase WWP2 R468A, O00308”, the abundance fitness is -0.157 ± 0.035.
For “NEDD4-like E3 ubiquitin-protein ligase WWP2 R468C, O00308”, the abundance fitness was -0.184 ± 0.06.
Regarding “NEDD4-like E3 ubiquitin-protein ligase WWP2 R468D, O00308”, the abundance fitness was -0.479 ± 0.06.
As to “NEDD4-like E3 ubiquitin-protein ligase WWP2 R468E, O00308”, the abundance fitness was -0.14 ± 0.039.
In the case of “NEDD4-like E3 ubiquitin-protein ligase WWP2 R468G, O00308”, the abundance fitness is -0.2 ± 0.033.
“NEDD4-like E3 ubiquitin-protein ligase WWP2 R468H, O00308”: the abundance fitness is -0.015 ± 0.08.
Regarding “NEDD4-like E3 ubiquitin-protein ligase WWP2 R468I, O00308”, the abundance fitness was -0.51 ± 0.12.
In the case of “NEDD4-like E3 ubiquitin-protein ligase WWP2 R468K, O00308” it was -0.071 ± 0.071; in that of “NEDD4-like E3 ubiquitin-protein ligase WWP2 R468L, O00308”, -0.191 ± 0.047.
Turning to “NEDD4-like E3 ubiquitin-protein ligase WWP2 R468M, O00308”, the abundance fitness was -0.11 ± 0.033.
Consider “NEDD4-like E3 ubiquitin-protein ligase WWP2 R468N, O00308”, for which the abundance fitness was -0.208 ± 0.08.
As for “NEDD4-like E3 ubiquitin-protein ligase WWP2 R468Q, O00308”, the abundance fitness was -0.111 ± 0.066.
On to “NEDD4-like E3 ubiquitin-protein ligase WWP2 R468S, O00308”, for which the abundance fitness was -0.212 ± 0.053.
In the case of “NEDD4-like E3 ubiquitin-protein ligase WWP2 R468T, O00308” it was -0.336 ± 0.069; in that of “NEDD4-like E3 ubiquitin-protein ligase WWP2 R468V, O00308”, -0.352 ± 0.036.
